Experimental data as given in patent publication US20220251206A1 (Bristol-Myers Squibb, published 2022).

T1: CTLA4 (UniProt P16410 36-223, limits assumed)
T1 sequence (looked up): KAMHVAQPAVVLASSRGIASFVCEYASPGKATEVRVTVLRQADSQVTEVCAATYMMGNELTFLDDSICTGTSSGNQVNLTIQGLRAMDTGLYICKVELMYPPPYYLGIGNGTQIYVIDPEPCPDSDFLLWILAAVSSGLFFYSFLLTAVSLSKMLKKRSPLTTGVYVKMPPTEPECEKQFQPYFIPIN

B1: de-prodrugged Antibody A1 (antibody, human IgG1, kappa, V domains shown)
VH: QVQLVESGGGVVQPGRSLRLSCAASGFTFSSYTMHWVRQAPGKGLEWVTFISYDGNCKYYADSVKGRFTISRDNSKNTLYLQMNSLRAEDTAIYYCARTGWLGPFDYWGQGTLVTVSS
VL: not shown
modifications: succinimide residue (or its ring-opened derivative) left on the substituted-in Cys of VH CDR2 after cleavage of the linker
B2: de-prodrugged Antibody D1 (antibody, human IgG1, kappa, V domains shown)
VH: QVQLVESGGGVVQPGRSLRLSCAASGFTFSSYTMHWVRQAPGKGLEWVTFISYDGNNKYYADSVKGRFTISRDNSKNTLYLQMNSLRAEDTAIYYCARTGWLGPFDYWGQGTLVTVSS
VL: not shown
modifications: succinimide residue (or its ring-opened derivative) left on Cys 53 of SEQ ID NO:10 after cleavage of the linker
B3: de-prodrugged Antibody C1 (antibody, human IgG1, kappa, V domains shown)
VH: QVQLVESGGGVVQPGRSLRLSCAASGFTFSSYTMHWVRQAPGKGLEWVTFISYDGNNKYYADSVKGRFTISRDNSKNTLYLQMNSLRAEDTAIYYCARTGWLGPFDYWGQGTLVTVSS
VL: not shown
modifications: succinimide residue (or its ring-opened derivative) left on Cys 31 of SEQ ID NO:10 after cleavage of the linker
B4: de-prodrugged Antibody B1 (antibody, human IgG1, kappa, V domains shown)
VH: QVQLVESGGGVVQPGRSLRLSCAASGFTFSSYTMHWVRQAPGKGLEWVTFISYDGNNKYYADSVKGRFTISRDNSKNTLYLQMNSLRAEDTAIYYCARTGWLGPFDYWGQGTLVTVSS
VL: not shown
modifications: succinimide residue (or its ring-opened derivative) left on Cys 28 of SEQ ID NO:10 after cleavage of the linker
B5: de-prodrugged Antibody E1 (antibody, human IgG1, kappa, V domains shown)
VH: QVQLVESGGGVVQPGRSLRLSCAASGFTFSSYTMHWVRQAPGKGLEWVTFISYDGNNKYYADSVKGRFTISRDNSKNTLYLQMNSLRAEDTAIYYCARTGWLGPFDYWGQGTLVTVSS
VL: not shown
modifications: succinimide residue (or its ring-opened derivative) left on Cys 57 of SEQ ID NO:10 after cleavage of the linker

Target: T1, CTLA4
Assay: cell-based or functional assay

Binder | IL-2 secretion by SEB-stimulated PBMC (HTRF) [fold]
B1 | ~3
B2 | ~3
B3 | ~3
B4 | ~3
B5 | ~3
